{"source": "patent US20010055591A1", "key": {"trypsin": {"target": "trypsin", "experiment": "discontinuous trypsin inhibition assay, chromogenic substrate SpTH"}, "[1]": {"target": "thrombin (free thrombin) (human) (UniProt P00734)", "experiment": "discontinuous thrombin inhibition assay, chromogenic substrate; no TM"}, "Factor Xa (human)": {"target": "Factor Xa (human) (UniProt P00742)", "sequence (P00742 41-179 limits assumed, form in doubt, chain 1 of 2)": "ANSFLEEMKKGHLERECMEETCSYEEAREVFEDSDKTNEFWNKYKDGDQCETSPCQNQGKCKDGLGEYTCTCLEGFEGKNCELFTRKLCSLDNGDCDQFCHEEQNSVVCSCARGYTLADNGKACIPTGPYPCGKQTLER", "sequence (P00742 235-488 limits assumed, form in doubt, chain 2 of 2)": "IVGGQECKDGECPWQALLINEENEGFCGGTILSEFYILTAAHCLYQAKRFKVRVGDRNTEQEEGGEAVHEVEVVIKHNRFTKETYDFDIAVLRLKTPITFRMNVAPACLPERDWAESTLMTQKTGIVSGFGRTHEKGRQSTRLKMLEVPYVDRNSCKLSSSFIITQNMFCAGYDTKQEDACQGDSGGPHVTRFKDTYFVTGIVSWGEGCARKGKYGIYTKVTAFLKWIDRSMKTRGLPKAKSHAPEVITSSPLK", "experiment": "discontinuous Factor Xa inhibition assay, chromogenic substrate SpFXa"}, "[2]": {"target": "thrombin (free thrombin) (human) (UniProt P00734)", "experiment": "discontinuous thrombin inhibition assay, chromogenic substrate; with 5 µg/ml heparin"}}, "data": [{"substance": "AT-neut (antithrombin H-helix mutant Asp309 to Asn, Glu310, 312, 313 to Gln) (from UniProt P01008 33-464)", "values": [{"measurement": "second-order rate constant (κ2) of inhibition", "setting": "trypsin", "value": 17000, "unit": "M⁻¹ s⁻¹"}, {"measurement": "second-order rate constant (κ2) of inhibition", "setting": "[1]", "value": 4100, "unit": "M⁻¹ s⁻¹"}, {"measurement": "second-order rate constant (κ2) of inhibition", "setting": "Factor Xa (human)", "value": 990, "unit": "M⁻¹ s⁻¹"}, {"measurement": "second-order rate constant (κ2) of inhibition", "setting": "[2]", "value": "1.4e+06", "unit": "M⁻¹ s⁻¹"}]}]}
